# In the supplement of paper PMC9233669:
# Variants at the floor of the assay were thinned out.
# How the values were obtained:
# [1] = system: biotinyl-Phe-oxazolone; assay: self-aminoacylation, catalytic enhancement (BFO) (fold over background); higher = more active; k-Seq, kA / k0A0; sequences stand for … in GGGAAUGGAUCCACAUCUACGAAUUC…UUCACUGCAGACUUGACGAAGCUG
# Summary of the method: (§1)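 Each biotinyl-aminoacyl-oxazolone, at 2–1250 μM, was incubated with mutagenized RNA pools (0.43 μM) carrying a 21-nt variable region. The 50 μL reactions contained HEPES/NaCl/KCl/MgCl2/CaCl2 buffer with 5% acetonitrile at pH 6.9–7.0 and ran for 90 minutes at room temperature. After streptavidin capture, RNA was measured by qPCR in triplicate and by Illumina sequencing, and catalytic enhancement was calculated as median kA over the uncatalyzed rate from a pseudo-first-order fit of per-sequence fraction reacted.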
# [2] = system: biotinyl-Ile-oxazolone; assay: self-aminoacylation, catalytic enhancement (BIO) (fold over background); higher = more active; k-Seq, kA / k0A0; sequences stand for … in GGGAAUGGAUCCACAUCUACGAAUUC…UUCACUGCAGACUUGACGAAGCUG
# Summary of the method: as §1
# [3] = system: biotinyl-Met-oxazolone; assay: self-aminoacylation, catalytic enhancement (BMO) (fold over background); higher = more active; k-Seq, kA / k0A0; sequences stand for … in GGGAAUGGAUCCACAUCUACGAAUUC…UUCACUGCAGACUUGACGAAGCUG
# Summary of the method: as §1
# [4] = system: biotinyl-Val-oxazolone; assay: self-aminoacylation, catalytic enhancement (BVO) (fold over background); higher = more active; k-Seq, kA / k0A0; sequences stand for … in GGGAAUGGAUCCACAUCUACGAAUUC…UUCACUGCAGACUUGACGAAGCUG
# Summary of the method: as §1
# [5] = system: biotinyl-Leu-oxazolone; assay: self-aminoacylation, catalytic enhancement (BLO) (fold over background); higher = more active; k-Seq, kA / k0A0; sequences stand for … in GGGAAUGGAUCCACAUCUACGAAUUC…UUCACUGCAGACUUGACGAAGCUG
# Summary of the method: as §1
# [6] = system: biotinyl-Trp-oxazolone; assay: self-aminoacylation, catalytic enhancement (BWO) (fold over background); higher = more active; k-Seq, kA / k0A0; sequences stand for … in GGGAAUGGAUCCACAUCUACGAAUUC…UUCACUGCAGACUUGACGAAGCUG
# Summary of the method: as §1
Sequence,self-aminoacylation [1],self-aminoacylation [2],self-aminoacylation [3],self-aminoacylation [4],self-aminoacylation [5],self-aminoacylation [6]
CUACUUCAAGCAAUCGGCCUG [Fam1A.1 aminoacylation ribozyme variant],18.9,1.85,1.74,1.6,2.44,16.4
CUACUUCAAGCAAUGGGUCUG [Fam1A.1 aminoacylation ribozyme variant],0.863,1.02,0.934,0.998,0.852,1.09
CUACUUCAAUCAAUCCGUCUG [Fam1A.1 aminoacylation ribozyme variant],0.657,0.758,0.664,0.672,0.694,0.695
CUACUUCAAUCAAUCGGGCUG [Fam1A.1 aminoacylation ribozyme variant],8.36,1.41,1.31,1.24,1.38,7.13
CUACUUCAAUCAAUCGGUAUG [Fam1A.1 aminoacylation ribozyme variant],10.8,0.797,0.961,0.848,0.88,6.33
CUACUUCAAUCAAUCGUUCUG [Fam1A.1 aminoacylation ribozyme variant],0.629,0.491,0.379,0.596,0.472,0.428
CUACUUCAAUCCAUCGGUCUG [Fam1A.1 aminoacylation ribozyme variant],0.866,0.857,0.738,0.821,0.737,0.728
CUACUUCACACAAACGGUCUG [Fam1A.1 aminoacylation ribozyme variant],1.07,0.771,0.626,0.746,0.746,0.616
CUACUUCACACAAUAGGUCUG [Fam1A.1 aminoacylation ribozyme variant],1.01,0.6,0.474,0.605,0.469,0.394
CUACUUCACACAAUCCGUCUG [Fam1A.1 aminoacylation ribozyme variant],0.747,0.859,0.913,0.854,0.81,0.495
CUACUUCACACAAUCGGACUG [Fam1A.1 aminoacylation ribozyme variant],0.755,0.882,0.609,0.736,0.673,0.442
CUACUUCACACAAUCGGUGUG [Fam1A.1 aminoacylation ribozyme variant],0.67,1.07,1.65,1.25,1.22,0.513
CUACUUCACACAUUCGGUCUG [Fam1A.1 aminoacylation ribozyme variant],1.72,1.16,1.13,1.1,1.36,1.69
CUACUUCAGACAACCGGUCUG [Fam1A.1 aminoacylation ribozyme variant],0.886,0.968,1.22,1.28,1.03,0.969
CUACUUCAGACAAUCGGUAUG [Fam1A.1 aminoacylation ribozyme variant],0.586,0.719,0.636,0.704,0.717,0.529
CUACUUCAGACAAUCGGUCAG [Fam1A.1 aminoacylation ribozyme variant],1.26,0.805,0.73,0.83,0.872,0.771
CUACUUCAGACUAUCGGUCUG [Fam1A.1 aminoacylation ribozyme variant],0.949,0.816,0.734,0.943,0.832,0.939
CUACUUCAUACAAUCGGACUG [Fam1A.1 aminoacylation ribozyme variant],0.573,0.751,0.418,0.676,0.609,0.387
CUACUUCAUACAAUCGGUAUG [Fam1A.1 aminoacylation ribozyme variant],0.628,0.431,0.508,0.731,0.468,0.34
CUACUUCAUACAAUCGGUCUA [Fam1A.1 aminoacylation ribozyme variant],0.751,0.835,0.926,0.703,0.68,0.555
CUACUUCAUACAAUCGGUCUG [Fam1A.1 aminoacylation ribozyme variant],0.808,0.707,0.668,0.743,0.643,0.553
CUACUUCAUACGAUCGGUCUG [Fam1A.1 aminoacylation ribozyme variant],0.597,0.61,0.624,0.852,0.526,0.824
CUACUUCCAACAAGCGGUCUG [Fam1A.1 aminoacylation ribozyme variant],0.744,1.21,1.04,0.95,0.79,0.678
CUACUUCCAACAAUCGGUAUG [Fam1A.1 aminoacylation ribozyme variant],0.634,0.654,0.611,0.782,0.663,0.533
CUACUUCCAACAAUCGGUCGG [Fam1A.1 aminoacylation ribozyme variant],0.78,1.04,1.01,1.07,1.03,1.28
CUACUUCCAACAAUCGGUCUA [Fam1A.1 aminoacylation ribozyme variant],0.924,0.839,0.632,0.892,0.701,0.598
